Laboratory results published in article PMC10786891, “Massively parallel profiling of RNA-targeting CRISPR-Cas13d”.
Residue numbers refer to the chain shown, from its start. Names and notes keep the numbering of the source.

T1: EsCas13d, nuclease-dead (Eubacterium siraeum, UniProt B0MS50, R295A;H300A;R849A;H854A)
T1 sequence: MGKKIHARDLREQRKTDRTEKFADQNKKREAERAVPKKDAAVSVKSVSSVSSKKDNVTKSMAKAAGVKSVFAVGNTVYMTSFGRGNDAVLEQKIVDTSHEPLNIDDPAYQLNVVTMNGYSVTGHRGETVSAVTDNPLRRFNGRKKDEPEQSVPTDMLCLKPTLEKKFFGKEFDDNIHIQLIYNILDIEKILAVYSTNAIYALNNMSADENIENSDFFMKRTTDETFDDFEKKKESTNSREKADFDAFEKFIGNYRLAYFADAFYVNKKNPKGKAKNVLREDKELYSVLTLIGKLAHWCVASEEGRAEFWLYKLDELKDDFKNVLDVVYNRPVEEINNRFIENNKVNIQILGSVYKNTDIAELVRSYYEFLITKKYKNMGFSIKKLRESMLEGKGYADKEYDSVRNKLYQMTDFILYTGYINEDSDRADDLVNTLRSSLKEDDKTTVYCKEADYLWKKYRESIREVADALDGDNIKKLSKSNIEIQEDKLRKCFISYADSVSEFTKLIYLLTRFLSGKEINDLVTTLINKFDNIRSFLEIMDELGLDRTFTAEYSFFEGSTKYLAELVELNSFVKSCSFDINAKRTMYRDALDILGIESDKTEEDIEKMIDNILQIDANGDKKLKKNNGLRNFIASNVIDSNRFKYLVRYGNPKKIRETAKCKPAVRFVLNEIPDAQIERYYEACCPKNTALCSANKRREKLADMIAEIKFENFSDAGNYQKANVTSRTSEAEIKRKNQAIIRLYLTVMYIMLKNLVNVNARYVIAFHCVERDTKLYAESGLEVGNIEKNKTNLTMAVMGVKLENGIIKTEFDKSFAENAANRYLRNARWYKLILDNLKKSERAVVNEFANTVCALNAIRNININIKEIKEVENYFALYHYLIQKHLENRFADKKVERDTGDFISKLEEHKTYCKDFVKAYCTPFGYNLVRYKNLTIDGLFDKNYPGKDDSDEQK

B1: target 2 MT 5'PFS CUG 3'PFS UUU (mixed)
RNA 1: CACCCGUGCAAAAUUGCAGGGGUCUAAAACCUUCUCCAAAUUGUUUCAUCCU
RNA 2: GGGAAUGGAUCCACAUCUACGAAUUCCUGAGGAUGAAACAAUUUGGAGAAGUUUAGAUCGGAAGAGCACACGU
B2: target 2 MT 5'PFS CAC 3'PFS CAG (mixed)
RNA 1: B1 RNA 1
RNA 2: B1 RNA 2 with U28A, G29C, U52C, U53A, U54G
B3: target 2 MT 5'PFS UGG 3'PFS CGC (mixed)
RNA 1: B1 RNA 1
RNA 2: B1 RNA 2 with C27U, U28G, U52C, U53G, U54C
B4: target 2 MT 5'PFS AGG 3'PFS CCG (mixed)
RNA 1: B1 RNA 1
RNA 2: B1 RNA 2 with C27A, U28G, U52C, U53C, U54G
B5: target 2 MT 5'PFS CAC 3'PFS CAU (mixed)
RNA 1: B1 RNA 1
RNA 2: B1 RNA 2 with U28A, G29C, U52C, U53A
B6: target 2 MT 5'PFS UGG 3'PFS CGA (mixed)
RNA 1: B1 RNA 1
RNA 2: B1 RNA 2 with C27U, U28G, U52C, U53G, U54A
B7: target 2 MT 5'PFS UUG 3'PFS UAU (mixed)
RNA 1: B1 RNA 1
RNA 2: B1 RNA 2 with C27U, U53A
B8: target 2 MT 5'PFS CUG 3'PFS UUG (mixed)
RNA 1: B1 RNA 1
RNA 2: B1 RNA 2 with U54G
B9: target 2 MT 5'PFS CAC 3'PFS UGU (mixed)
RNA 1: B1 RNA 1
RNA 2: B1 RNA 2 with U28A, G29C, U53G
B10: target 2 MT 5'PFS GGU 3'PFS UUC (mixed)
RNA 1: B1 RNA 1
RNA 2: B1 RNA 2 with C27G, U28G, G29U, U54C
B11: target 2 MT 5'PFS GUA 3'PFS ACU (mixed)
RNA 1: B1 RNA 1
RNA 2: B1 RNA 2 with C27G, G29A, U52A, U53C
B12: target 2 MT 5'PFS UCU 3'PFS ACA (mixed)
RNA 1: B1 RNA 1
RNA 2: B1 RNA 2 with C27U, U28C, G29U, U52A, U53C, U54A
B13: target 2 MT 5'PFS UGU 3'PFS UAC (mixed)
RNA 1: B1 RNA 1
RNA 2: B1 RNA 2 with C27U, U28G, G29U, U53A, U54C
B14: target 2 MT 5'PFS AAA 3'PFS AUC (mixed)
RNA 1: B1 RNA 1
RNA 2: B1 RNA 2 with C27A, U28A, G29A, U52A, U54C
B15: target 2 MT 5'PFS CUG 3'PFS UUC (mixed)
RNA 1: B1 RNA 1
RNA 2: B1 RNA 2 with U54C
B16: target 2 MT 5'PFS CGG 3'PFS UUG (mixed)
RNA 1: B1 RNA 1
RNA 2: B1 RNA 2 with U28G, U54G
B17: target 2 MT 5'PFS CGG 3'PFS UUC (mixed)
RNA 1: B1 RNA 1
RNA 2: B1 RNA 2 with U28G, U54C
B18: target 2 MT 5'PFS AGG 3'PFS CCU (mixed)
RNA 1: B1 RNA 1
RNA 2: B1 RNA 2 with C27A, U28G, U52C, U53C
B19: target 2 MT 5'PFS GAA 3'PFS UAA (mixed)
RNA 1: B1 RNA 1
RNA 2: B1 RNA 2 with C27G, U28A, G29A, U53A, U54A
B20: target 2 MT 5'PFS GAA 3'PFS UAC (mixed)
RNA 1: B1 RNA 1
RNA 2: B1 RNA 2 with C27G, U28A, G29A, U53A, U54C
B21: target 2 MT 5'PFS GGC 3'PFS CCG (mixed)
RNA 1: B1 RNA 1
RNA 2: B1 RNA 2 with C27G, U28G, G29C, U52C, U53C, U54G
B22: target 2 MT 5'PFS GGC 3'PFS UAA (mixed)
RNA 1: B1 RNA 1
RNA 2: B1 RNA 2 with C27G, U28G, G29C, U53A, U54A
B23: target 2 MT 5'PFS CUG 3'PFS CAA (mixed)
RNA 1: B1 RNA 1
RNA 2: B1 RNA 2 with U52C, U53A, U54A
B24: target 2 MT 5'PFS GCU 3'PFS CAU (mixed)
RNA 1: B1 RNA 1
RNA 2: B1 RNA 2 with C27G, U28C, G29U, U52C, U53A
B25: target 2 MT 5'PFS GUA 3'PFS ACC (mixed)
RNA 1: B1 RNA 1
RNA 2: B1 RNA 2 with C27G, G29A, U52A, U53C, U54C
B26: target 2 MT 5'PFS CUG 3'PFS UUA (mixed)
RNA 1: B1 RNA 1
RNA 2: B1 RNA 2 with U54A
B27: target 2 MT 5'PFS AAA 3'PFS AUU (mixed)
RNA 1: B1 RNA 1
RNA 2: B1 RNA 2 with C27A, U28A, G29A, U52A
B28: target 2 MT 5'PFS CAC 3'PFS CAC (mixed)
RNA 1: B1 RNA 1
RNA 2: B1 RNA 2 with U28A, G29C, U52C, U53A, U54C
B29: target 2 MT 5'PFS GUA 3'PFS ACA (mixed)
RNA 1: B1 RNA 1
RNA 2: B1 RNA 2 with C27G, G29A, U52A, U53C, U54A
B30: target 2 MT 5'PFS GUA 3'PFS ACG (mixed)
RNA 1: B1 RNA 1
RNA 2: B1 RNA 2 with C27G, G29A, U52A, U53C, U54G
B31: target 2 MT 5'PFS CUA 3'PFS CUU (mixed)
RNA 1: B1 RNA 1
RNA 2: B1 RNA 2 with G29A, U52C
B32: target 2 MT 5'PFS ACC 3'PFS AGA (mixed)
RNA 1: B1 RNA 1
RNA 2: B1 RNA 2 with C27A, U28C, G29C, U52A, U53G, U54A
B33: target 2 MT 5'PFS CGG 3'PFS UUA (mixed)
RNA 1: B1 RNA 1
RNA 2: B1 RNA 2 with U28G, U54A
B34: target 2 MT 5'PFS AAA 3'PFS AUG (mixed)
RNA 1: B1 RNA 1
RNA 2: B1 RNA 2 with C27A, U28A, G29A, U52A, U54G
B35: target 1 U11A,A16G (mixed)
RNA 1: CACCCGUGCAAAAAUGCAGGGGUCUAAAACUGAGCGGAUAACCUCUCUAUGG
RNA 2: GGGAAUGGAUCCACAUCUACGAAUUCGUACCAUAGGGAGGAUAUCCGCUCACCGAGAUCGGAAGAGCACACGU
B36: target 1 insU 3' of 4,insA 3' of 3 (mixed)
RNA 1: B35 RNA 1
RNA 2: GGGAAUGGAUCCACAUCUACGAAUUCGUACCAUAGAGAGGUUAUCCGCUUACACCGAGAUCGGAAGAGCACACGU
B37: target 1 insA 3' of 21,insC 3' of 20 (mixed)
RNA 1: B35 RNA 1
RNA 2: GGGAAUGGAUCCACAUCUACGAAUUCGUACCAACUAGAGAGGUUAUCCGCUCACCGAGAUCGGAAGAGCACACGU
B38: target 1 A1G,A9C (mixed)
RNA 1: B35 RNA 1
RNA 2: B35 RNA 2 with G36A, A41U, A43C, A51G

target: T1, EsCas13d, nuclease-dead; experiment: crRNA (strand 1, pre-loaded); Mg2+; 40 mM Tris-HCl pH 7.5, 150 mM NaCl, 6 mM MgCl2, 1 mM DTT, 0.1% Tween-20, 0.2 mg/ml BSA; 25 C; 10 min per concentration, then washed; details: tags: His6-TwinStrep-SUMO cleaved; N-terminal SNAP kept (SNAP-Surface 488); label: 3' end held by stalled T7 RNA polymerase

| Binder | Kd |
| --- | --- |
| B1 | 5.5 ± 0.5 nM |
| B2 | 1.3 ± 0.23 nM |
| B3 | 5.8 ± 0.4 nM |
| B4 | 8.2 ± 0.9 nM |
| B5 | 3.5 ± 0.4 nM |
| B6 | 5.4 ± 0.8 nM |
| B7 | 8.6 ± 0.8 nM |
| B8 | 5.8 ± 0.9 nM |
| B9 | 2.27 ± 0.29 nM |
| B10 | 73 ± 28 nM |
| B11 | 15.9 ± 2.7 nM |
| B12 | 9.2 ± 1.9 nM |
| B13 | 25 ± 4 nM |
| B14 | 3.6 ± 0.7 nM |
| B15 | 7.3 ± 1.4 nM |
| B16 | 6.5 ± 0.7 nM |
| B17 | 10.8 ± 1.7 nM |
| B18 | 40 ± 15 nM |
| B19 | 7.3 ± 1.5 nM |

| Binder | Kd |
| --- | --- |
| B20 | 12 ± 4 nM |
| B21 | 17.1 ± 3 nM |
| B22 | 9.4 ± 1.2 nM |
| B23 | 2.4 ± 0.4 nM |
| B24 | 9.8 ± 2.5 nM |
| B25 | 22 ± 4 nM |
| B26 | 4.7 ± 0.4 nM |
| B27 | 5.2 ± 1 nM |
| B28 | 2.9 ± 0.4 nM |
| B29 | 10.7 ± 1.6 nM |
| B30 | 10.6 ± 0.9 nM |
| B31 | 4 ± 0.8 nM |
| B32 | 7.9 ± 3.1 nM |
| B33 | 7 ± 1 nM |
| B34 | 4.4 ± 0.8 nM |
| B35 | 77 ± 15 nM |
| B36 | 8 ± 0.3 nM |
| B37 | 10 ± 0.5 nM |
| B38 | 13.7 ± 2.3 nM |
